Laboratory results published in US20250270274A1 (SERPENTIDE, published 2025).
Like-named read-outs stand apart in the source and are kept apart here. Where no end group is shown, it is not given here.

Assays:
Test in all cases: cell-based or functional assay
human GIP receptor [1] = molecular target: T1, human GIP receptor (human, UniProt P48546 22-466)
T1 sequence (looked up): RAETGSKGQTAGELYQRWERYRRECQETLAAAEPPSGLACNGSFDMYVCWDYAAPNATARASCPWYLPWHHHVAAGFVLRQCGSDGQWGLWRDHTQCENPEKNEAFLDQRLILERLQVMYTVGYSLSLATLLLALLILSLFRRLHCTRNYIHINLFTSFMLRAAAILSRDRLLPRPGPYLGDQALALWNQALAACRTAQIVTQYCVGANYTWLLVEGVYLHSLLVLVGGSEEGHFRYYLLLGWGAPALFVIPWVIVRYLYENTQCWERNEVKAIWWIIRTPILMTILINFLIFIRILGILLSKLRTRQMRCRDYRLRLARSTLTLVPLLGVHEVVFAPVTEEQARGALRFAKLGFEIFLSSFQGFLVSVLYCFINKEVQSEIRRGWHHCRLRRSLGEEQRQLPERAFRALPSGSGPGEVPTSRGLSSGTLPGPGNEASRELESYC

human GLP1 receptor [2] = molecular target: T2, human GLP1 receptor (human, UniProt P43220 24-463)
mouse GIP receptor = molecular target: T3, mouse GIP receptor (mouse, UniProt Q0P543 19-460)
T3 sequence (looked up): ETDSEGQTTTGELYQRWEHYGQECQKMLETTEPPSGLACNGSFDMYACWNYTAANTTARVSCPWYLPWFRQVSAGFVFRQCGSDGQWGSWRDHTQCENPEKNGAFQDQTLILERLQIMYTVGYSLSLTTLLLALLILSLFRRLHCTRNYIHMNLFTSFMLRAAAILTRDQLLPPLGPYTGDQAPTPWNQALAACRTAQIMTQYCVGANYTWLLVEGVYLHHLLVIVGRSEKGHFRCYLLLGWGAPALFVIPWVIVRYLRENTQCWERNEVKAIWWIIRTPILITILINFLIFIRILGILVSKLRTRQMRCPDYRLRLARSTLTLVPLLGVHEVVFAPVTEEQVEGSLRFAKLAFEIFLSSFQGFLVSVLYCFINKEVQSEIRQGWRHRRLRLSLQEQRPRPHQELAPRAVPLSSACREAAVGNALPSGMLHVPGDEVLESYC

human GIP receptor [3] = molecular target: T1, human GIP receptor; remark: listed apart in the source
human GLP1 receptor [4] = molecular target: T2, human GLP1 receptor; remark: listed apart in the source

B1: P26: SP02-bispecific antibodies for GLP1R and GIPR (bispecific antibody, human IgG1, kappa)
chain 1: YGEGTFTSDYSIYLDKIAQKAFVQWLIAGGPSSGAPPPSGGGGSGGGGSGGGGSDIVMTQSPSSLTVTAGEKVTMSCKSSQSLLNSGNQKNYLTWYQQKPGQPPKLLISWASTRDSGVPDRFTGSGSGTDFTLTISSVQAEDLAVYYCQNDYSYPLTFGAGTKLELKRTVAAPSVFIFPPSDEQLKSGTASVVCLLNNFYPREAKVQWKVDNALQSGNSQESVTEQDSKDSTYSLSSTLTLSKADYEKHKVYACEVTHQGLSSPVTKSFNRGEC
chain 2: YGEGTFTSDYSIYLDKIAQKAFVQWLIAGGPSSGAPPPSGGGGSGGGGSGGGGSQIVLTQSPAIMSASPGEKVTMTCSASSRVTYMHWYQQRSGTSPKRWIYDTSKLASGVPARFSGSGSGTSYSLTISSMEAEDAATYYCQQWGNNPQYTFGGGTRLEIKRTVAAPSVFIFPPSDEQLKSGTASVVCLLNNFYPREAKVQWKVDNALQSGNSQESVTEQDSKDSTYSLSSTLTLSKADYEKHKVYACEVTHQGLSSPVTKSFNRGEC
chain 3: not shown
chain 4: not shown
With B1 the “EC50, HTRF cAMP bioassay” value (human GIP receptor [1]) was 48 nM, the “EC50, HTRF cAMP bioassay” value (human GLP1 receptor [2]) was 0.12 nM and the “EC50, HTRF cAMP bioassay” value (mouse GIP receptor) was 0.35 nM.

B2: P28: SP02-amG2 (antibody, human IgG4 S228P, kappa, F234A L235A)
light: YGEGTFTSDYSIYLDKIAQKAFVQWLIAGGPSSGAPPPSGGGGSGGGGSGGGGSDIVMTQSPSSLTVTAGEKVTMSCKSSQSLLNSGNQKNYLTWYQQKPGQPPKLLISWASTRDSGVPDRFTGSGSGTDFTLTISSVQAEDLAVYYCQNDYSYPLTFGAGTKLELKRTVAAPSVFIFPPSDEQLKSGTASVVCLLNNFYPREAKVQWKVDNALQSGNSQESVTEQDSKDSTYSLSSTLTLSKADYEKHKVYACEVTHQGLSSPVTKSFNRGEC
heavy: not shown
With B2 the “EC50, HTRF cAMP bioassay” value (human GIP receptor [1]) was 69 nM, the “EC50, HTRF cAMP bioassay” value (human GLP1 receptor [2]) was 1.25 nM and the “EC50, HTRF cAMP bioassay” value (mouse GIP receptor) was 0.42 nM.

B3: P46: SP01-amG3 (antibody, human IgG4 S228P, kappa, F234A L235A)
light: HGEGTFTSDVSSYLEEQAAKEFIAWLVKGGGGGGGSGGGGSGGGGSDVVMTQTPLSLPVSLGDQASISCRSSQSLVHSNGDTYLHWYLQKPGQSPKLLIYKVSNRFSGVPDRFSGSGSGTDFTLKISRVEAADLGVYFCSQSTHVPPFTFGGGTKLEIKRTVAAPSVFIFPPSDEQLKSGTASVVCLLNNFYPREAKVQWKVDNALQSGNSQESVTEQDSKDSTYSLSSTLTLSKADYEKHKVYACEVTHQGLSSPVTKSFNRGEC
heavy: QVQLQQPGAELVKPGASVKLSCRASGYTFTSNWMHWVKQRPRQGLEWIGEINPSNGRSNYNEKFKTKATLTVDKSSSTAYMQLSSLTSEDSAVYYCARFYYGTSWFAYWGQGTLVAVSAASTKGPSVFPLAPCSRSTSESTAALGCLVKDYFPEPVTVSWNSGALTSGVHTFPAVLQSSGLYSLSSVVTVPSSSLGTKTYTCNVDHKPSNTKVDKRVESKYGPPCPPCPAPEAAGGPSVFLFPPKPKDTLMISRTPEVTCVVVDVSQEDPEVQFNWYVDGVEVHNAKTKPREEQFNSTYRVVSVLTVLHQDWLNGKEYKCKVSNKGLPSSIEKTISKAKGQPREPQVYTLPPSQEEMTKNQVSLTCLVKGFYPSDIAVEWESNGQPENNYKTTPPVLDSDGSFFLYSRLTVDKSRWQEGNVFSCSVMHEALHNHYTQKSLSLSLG
With B3 the “EC50, HTRF cAMP bioassay” value (human GLP1 receptor [2]) was 0.034 nM and the “IC50, HTRF cAMP bioassay” value (mouse GIP receptor) was 11.2 nM.

B4: SP02: GLP1/GIP receptor co-agonist analogue (peptide)
peptide: YGEGTFTSDYSIYLDKIAQKAFVQWLIAGGPSSGAPPPS
modifications: ends and bridges not checked
In the case of B4, the “EC50, HTRF cAMP bioassay” value (human GIP receptor [3]) is reported as 3.69 nM.

B5: SP03: GLP1/GIP receptor co-agonist analogue (peptide)
peptide: YGEGTFTSDYSIQLDKIAQKAFVQWLIAGGPSSGAPPPS
modifications: ends and bridges not checked
B5 was tested, and the “EC50, HTRF cAMP bioassay” value (human GIP receptor [3]) was 22 nM and the “EC50, HTRF cAMP bioassay” value (human GLP1 receptor [4]) was 0.225 nM.
